From patent US20130089544A1 (AstraZeneca / MedImmune, published 2013)
Numbering of substitutions follows the chain as printed. Each block holds one binder with its values, some of them ahead of it.

Experiments:
[1] = target: T1, human ErbB2, full length, on cells (human, UniProt P04626 23-1255); test: cell-based or functional assay
[2] = target: T1, human ErbB2, full length, on cells; test: cell-based or functional assay; remark: listed apart in the source
[3] = target: T1, human ErbB2, full length, on cells; test: cell-based or functional assay; remark: listed apart in the source
[4] = target: T1, human ErbB2, full length, on cells; test: cell-based or functional assay; remark: listed apart in the source
[5] = target: T1, human ErbB2, full length, on cells; test: cell-based or functional assay; remark: listed apart in the source
[6] = target: T2, human ErbB2 ECD-myc/His fusion protein (human, UniProt P04626 23-652); test: SPR, Biacore 2000 medium resolution; mAb captured on goat anti-human IgG, ErbB2(ECD)-cMyc/His injected; 1:1 fit
T2 construct: Made in-house in 293T cells; also called hErbB2(ECD)/cMyc-His; huErbB2 (ECD)/c-myc-His; not shown: c-myc/His tag of the pSecTag2Hygro vector
Protocol: The binding affinity of eight of the anti-ErbB2 antibodies was measured by medium resolution Biacore. All experiments were performed using a Biacore 2000 instrument.
First, 12 high-density goat α-human IgG antibody surfaces over three CM5 Biacore chips were prepared using routine amine coupling. […] Before each antigen injection cycle, each mAb was captured for six to nine seconds at a 100 μL/min flow rate. A 2-minute wash step followed each capture injection to stabilize each mAb baseline. […] All samples were randomly injected with several mAb capture/buffer inject cycles interspersed for double referencing. […] A flow rate of 100 μL/min. was used for all injection cycles. The data was fit to a 1:1 interaction model using CLAMP.

[7] = target: T2, human ErbB2 ECD-myc/His fusion protein; test: limited antigen ELISA, 31 ng/ml ErbB2 ECD-myc/His coated, supernatant 1:25
Protocol: […] […] Antigen-coated plates were washed three times, blocked with 1% non-fat skim milk/PBS for at least 30 minutes at room temperature, and then washed again three times. Each hybridoma line sample was titrated in 1% non-fat skim-milk/PBS 1:3 for 7 points starting from a 1:25 dilution. […] The next day, plates were washed three times and incubated with 50 μl of 400 ng/ml immunopure Goat anti-human IgG (Fc)-HRP (Pierce catalog #31416) for 1 hour at room temperature. Then, the plates were extensively washed and pat dried on paper towel to remove residual HRP in wells. HRP substrate TMB (enhanced K-blue TMB, Neogen catalog #308177) was added to each well and incubated for 30 min. The reaction was stopped by addition of 1N HCl. Optical density at 450 nm was read on a microplate reader (Titerteck Multiskan Ascent).

[8] = target: T1, human ErbB2, full length, on cells; test: cell-based or functional assay; remark: listed apart in the source
[9] = target: T2, human ErbB2 ECD-myc/His fusion protein; test: SPR, Biacore T100 high resolution; mAb captured on goat anti-human IgG, hHer-2(ECD)cMyc injected; 1:1 fit
Protocol: All experiments were performed using a Biacore T100 instrument. First, a high-density goat α human IgG antibody (Caltag H10500) surface was prepared over two CM5 Biacore chips using routine amine coupling. Each mAb was diluted in HBS-P running buffer containing 100 μg/ml Bovine serum albumin (BSA).
A capture level protocol was developed for all five mAbs. Before each antigen injection cycle, each mAb was captured for 15 to 30 seconds at a 20 μL/min flow rate. A 5-minute wash step followed each capture injection to stabilize each mAb baseline. […] The samples were prepared in the running buffer described above. All samples were randomly injected with several mAb capture/buffer inject cycles interspersed for double referencing. […] A flow rate of 50 μL/min. was used for all injection cycles.
All sensorgram data were fit to a 1:1 interaction model using CLAMP.

- EC50 (ng/ml) n1, inhibition of Heregulin-induced ErbB2 phosphorylation in MCF7 cells [1]: > 10000 ng/mL
- EC50 (ng/ml) n2, inhibition of Heregulin-induced ErbB2 phosphorylation in MCF7 cells [1]: > 10000 ng/mL
- % Inhibition @10 µg/ml, Heregulin-induced MCF7 cell proliferation [2]: 53%
- EC50 (ng/ml), inhibition of Heregulin-induced MCF7 cell proliferation [2]: ~10000 ng/mL
B1: monoclonal antibody 1.43 (antibody, V domains shown)
VH: EVQLVESGGGLVQPGGSLRLSCAASGFTFSSYWMHWVRQTPGKGLEWVANIKQDGSEKYYVDSVKGRFTISRDNAKNSLHLQMNSLRAEDTAAYYCASFRDYGMDVWGQGTTVTVSS
VL: DIQMTQSPSSLSASVGDRVTITCRASQGISNHLAWFQQKPGKAPKSLIYGASSLQTGVPSKFSGSGSGTDFTLTISSLQPEDFASYFCQQYKGYPITFGQGTRLEIK

- 1 hr pTyr inhibition % (Heregulin-induced ErbB2 phosphorylation in MCF7 cells, hybridoma supernatant) [3]: 95%
- 24 hr pTyr inhibition % (Heregulin-induced ErbB2 phosphorylation in MCF7 cells, hybridoma supernatant) [3]: 95%
- % Inhibition @10 µg/ml (n1), ErbB2 phosphorylation in BT474 cells at 48 hours [4]: 37%
- % Inhibition @10 µg/ml (n2), ErbB2 phosphorylation in BT474 cells at 48 hours [4]: 26%
- % inhibition @36 µg/ml, SKBR3 cell proliferation [5]: 54%
- EC50 (ng/ml), inhibition of SKBR3 cell proliferation [5]: 61.3 ng/mL
- EC50 (ng/ml) n1, inhibition of Heregulin-induced ErbB2 phosphorylation in MCF7 cells [1]: 39.9 ng/mL
- EC50 (ng/ml) n2, inhibition of Heregulin-induced ErbB2 phosphorylation in MCF7 cells [1]: 33.7 ng/mL
- % Inhibition @10 µg/ml, Heregulin-induced MCF7 cell proliferation [2]: 95%
- EC50 (ng/ml), inhibition of Heregulin-induced MCF7 cell proliferation [2]: 2040 ng/mL
- Kd [6]: 2.9 nM
- koff [6]: 0.000301 s⁻¹
- kon [6]: 104000 M⁻¹ s⁻¹
- LA at 31 ng/ml (OD) [7]: 3.54 OD 450 nm
- N1 % Inhibition @40 µg/ml, BT474 cell proliferation [8]: 35%
- N1 EC50 (ng/ml), inhibition of BT474 cell proliferation [8]: 169 ng/mL
- N2 % Inhibition @40 µg/ml, BT474 cell proliferation [8]: 32%
- N2 EC50 (ng/ml), inhibition of BT474 cell proliferation [8]: 91.1 ng/mL
B2: monoclonal antibody 1.100.1 (antibody, V domains shown)
VH: EVQLVESGGGLVKPGGSLRLSCAASGFTFSSYSMNWVRQAPGKGLEWVSSISSSSSYIYYADSVKGRFTISRDNAKNSLYLQMNSLRAEDTAVYYCARGGDGYNYYYFDYWGQGTLVTVSS
VL: DIVMTQSPDSLAVSLGERATITCKSSQSVFFRSNNKNCLAWYQQRPGQPPNLLIYWASTRESGVPDRFSGSGCGTDFTLTISSLQAEDVAVYYCQQYFGSPFTFGPGTKVDIK
notes: Fully human IgG (gamma/kappa) from a XenoMouse XM3B-3 hybridoma; constant regions not tied to it; also called 1.100.2; 1.100.3

- % Inhibition @10 µg/ml (n1), ErbB2 phosphorylation in BT474 cells at 48 hours [4]: 31%
- % Inhibition @10 µg/ml (n2), ErbB2 phosphorylation in BT474 cells at 48 hours [4]: 33%
- % inhibition @36 µg/ml, SKBR3 cell proliferation [5]: 44%
- EC50 (ng/ml), inhibition of SKBR3 cell proliferation [5]: 42.7 ng/mL
- Kd [9]: 10.6 nM
- koff [9]: 0.000173 s⁻¹
- kon [9]: 16400 M⁻¹ s⁻¹
- EC50 (ng/ml) n1, inhibition of Heregulin-induced ErbB2 phosphorylation in MCF7 cells [1]: 14.7 ng/mL
- EC50 (ng/ml) n2, inhibition of Heregulin-induced ErbB2 phosphorylation in MCF7 cells [1]: 22.9 ng/mL
- % Inhibition @10 µg/ml, Heregulin-induced MCF7 cell proliferation [2]: 91%
- EC50 (ng/ml), inhibition of Heregulin-induced MCF7 cell proliferation [2]: 633 ng/mL
- Kd [6]: 3.5 nM
- koff [6]: 0.000333 s⁻¹
- kon [6]: 94000 M⁻¹ s⁻¹
- N1 % Inhibition @40 µg/ml, BT474 cell proliferation [8]: 39%
- N1 EC50 (ng/ml), inhibition of BT474 cell proliferation [8]: 300 ng/mL
- N2 % Inhibition @40 µg/ml, BT474 cell proliferation [8]: 45%
- N2 EC50 (ng/ml), inhibition of BT474 cell proliferation [8]: 70.9 ng/mL
B3: monoclonal antibody 1.140 (antibody, V domains shown)
VH: B2 VH with G42R
VL: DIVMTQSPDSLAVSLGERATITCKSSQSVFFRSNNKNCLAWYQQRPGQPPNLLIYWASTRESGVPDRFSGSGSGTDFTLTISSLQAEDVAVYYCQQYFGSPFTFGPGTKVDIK
notes: Fully human IgG (gamma/kappa) from a XenoMouse XM3B-3 hybridoma; constant regions not tied to it; also called 1.124

- 1 hr pTyr inhibition % (Heregulin-induced ErbB2 phosphorylation in MCF7 cells, hybridoma supernatant) [3]: 91%
- 24 hr pTyr inhibition % (Heregulin-induced ErbB2 phosphorylation in MCF7 cells, hybridoma supernatant) [3]: 96%
- % Inhibition @10 µg/ml (n1), ErbB2 phosphorylation in BT474 cells at 48 hours [4]: 21%
- % Inhibition @10 µg/ml (n2), ErbB2 phosphorylation in BT474 cells at 48 hours [4]: 28%
- % inhibition @36 µg/ml, SKBR3 cell proliferation [5]: 49%
- EC50 (ng/ml), inhibition of SKBR3 cell proliferation [5]: 25.2 ng/mL
- EC50 (ng/ml) n1, inhibition of Heregulin-induced ErbB2 phosphorylation in MCF7 cells [1]: 15.5 ng/mL
- EC50 (ng/ml) n2, inhibition of Heregulin-induced ErbB2 phosphorylation in MCF7 cells [1]: 17.4 ng/mL
- % Inhibition @10 µg/ml, Heregulin-induced MCF7 cell proliferation [2]: 100%
- EC50 (ng/ml), inhibition of Heregulin-induced MCF7 cell proliferation [2]: 770 ng/mL
- Kd [6]: 3.6 nM
- koff [6]: 0.000344 s⁻¹
- kon [6]: 95000 M⁻¹ s⁻¹
- N1 % Inhibition @40 µg/ml, BT474 cell proliferation [8]: 40%
- N1 EC50 (ng/ml), inhibition of BT474 cell proliferation [8]: 85.3 ng/mL
- N2 % Inhibition @40 µg/ml, BT474 cell proliferation [8]: 37%
- N2 EC50 (ng/ml), inhibition of BT474 cell proliferation [8]: 12.8 ng/mL
B4: monoclonal antibody 1.20 (antibody, V domains shown)
VH: B2 VH with S33T, R87S, Y95S
VL: B2 VL with D9G, A12V, P49S, C73S
notes: Fully human IgG (gamma/kappa) from a XenoMouse XM3B-3 hybridoma; constant regions not tied to it; also called 1.20.1; 1.19
